Measurements from patent publication US9803013B2, “Biological materials and uses thereof” (BioInvent International AB, priority 2005, dated 2017).

Legend:
[1] = Single dose study in the rat (BI-505 pharmacokinetics); assay type: in vivo; details: for tmax: iv
From the text: AUC0-tlast=area under the serum concentration-time curve from time zero to last quantifiable concentration; AUC0-∞=area under the serum concentration-time curve from time zero to infinity; Cmax=maximum observed serum concentration; tmax=time of maximum observed serum concentration; t1/2=apparent terminal elimination half-life; CL=total serum clearance; Vss=apparent volume of distribution at steady-state; Vz=apparent volume of distribution during the terminal elimination phase. There were six animals per sex and treatment group.
Rats (n=6 per sex and treatment, for a total of 36 rats) were given 0.5, 2.5 or 10 mg/kg BI-505 as a single i.v. treatment. Blood was drawn from the caudal vein of rats at the following time-points: pre-dose, 15 min, 30 min, 1 hr, 2 hr, 8 hr, 24 hr, 2 days, 3 days, 5 days, 8 days, 2 weeks and 3 weeks. BI-505 serum concentrations were determined by ELISA from 15-18 samples per time-point, collected from alternating animals. Pharmacokinetics was calculated from the individual animal serum concentration-time data of BI-505 using non-compartmental analyses. […]

human FcγRIIIa = target: T1, human FcγRIIIa (Homo sapiens, UniProt P08637); experiment: BiaCore analysis of BI-505 Fc-variant binding to FcγR
T1 construct: made in house; host or cells: HEK293E cells (transient)
T1 sequence (P08637 17-254): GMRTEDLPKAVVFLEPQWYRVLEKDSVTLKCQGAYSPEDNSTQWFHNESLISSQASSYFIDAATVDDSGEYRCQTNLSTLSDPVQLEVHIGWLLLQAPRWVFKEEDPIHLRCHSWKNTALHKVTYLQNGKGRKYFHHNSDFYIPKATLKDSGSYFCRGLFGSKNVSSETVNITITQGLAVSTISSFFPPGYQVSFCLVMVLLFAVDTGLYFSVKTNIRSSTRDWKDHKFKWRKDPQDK
Protocol: (FIG. 20C) BiaCore analysis of BI-505 Fc-variant antibodies binding to human FcγRIIIa.
His-tagged human FcγRIIIa and mouse FcγRIV were transiently expressed in HEK293E cells, purified using Ni-NTA chromatography, and characterized by SDS-PAGE and/or Biacore. Surface plasmon resonance (SPR) measurements were performed using a Biacore 3000 instrument. Goat F(ab)′2 α-human-F(ab)′2 fragments (Jackson Laboratories) were immobilized with a CM-5 chip using a standard amine coupling protocol. BI-505 (IgG1) and IgG4 or IgG1 297Q variants of BI-505 were diluted to 15 and 60 μg/mL respectively and added to the surface at 10 μL/min for 3 min. His-tagged human FcγRIIIa or mouse FcγRIV was pre-incubated with an α-HIS antibody (R&D Systems) at a 2:1 molar ratio before addition to the chip surface, 30 μL/min, for 1 min. After each cycle the surface was regenerated twice with glycine buffer pH 1.7.

RPMI-8226 cells = experiment: Macrophage ADCP; assay type: cell-based; details: RPMI-8226, human macrophages
Protocol: (§1) Cultured macrophages were detached and plated in flat 96-well plates at 50 000 cells/well and placed in 37° C. CFSE-stained target cells were incubated with antibodies for up to 1 hr on ice. After washing, the different cell solutions were added to the culture plates containing macrophages at a ratio of 5:1 (Target cells:Macrophages). Thereafter, the culture plates were incubated at 37° C. for 1-2 hr (primary patient MM cells) or 16 hr (RPMI-8226 cells). The percentage of macrophages that had phagocytosed tumor cells (CFSE^+, CD206^+) per total analyzed macrophages was determined following gating and acquisition of 5000 CD206^+ cells/sample.
(§2) Buffy coats from healthy human donors were ordered through the local blood central at Lund University Hospital and Halmstad Hospital. Peripheral blood mononuclear cells (PBMCs) were first extracted using Ficoll-Paque PLUS (GE Healthcare Life Sciences), followed by isolation of monocytes with CD14 MicroBeads and MACS separation (Miltenyi Biotec). The monocytes were cultured in RPMI 1640 medium with 10% heat-inactivated FBS (Invitrogen) and 25 ng/mL of recombinant human M-CSF (R&D Systems) for 6-14 days, causing differentiation into macrophages. Medium with M-CSF was changed every 2-3 days upon initiation of cultures.
(§3) RPMI-8226 cells (ATCC) were continuously cultured in RPMI 1640 medium supplemented with 10 mM HEPES, 1 mM sodium pyruvate and 10% FBS. For multiple myeloma cells, freshly isolated bone marrow samples were donated by patients at Lund University Hospital and subsequently processed with Ficoll-Paque PLUS. Negative isolation of malignant plasma cells was then performed using the Plasma Cell Isolation Kit II according to the manufacturer's instructions (Miltenyi Biotec).
(§4) At least 4 h before co-culture with target cells the cultured macrophages were detached with Accutase (Sigma Aldrich), before plated in flat 96-well plates at 50 000 cells/well and placed in 37° C. […] After washing, the different cell solutions were added to the culture plates containing macrophages at a ratio of 5:1 (Target cells:Macrophages). Thereafter, the culture plates were incubated at 37° C. for 1-2 hr (primary patient MM cells) or 16 hr (RPMI-8226 cells). Next, samples were stained with APC-conjugated anti-CD206 antibody (BD Biosciences), before harvested by scraping the culture plate wells. The resulting cell solutions were then analyzed by flow cytometry, where CD206^+ macrophages were gated and acquired at 5000 cells/sample. A cut-off level identifying CFSE^+, CD206^+ double positive (phagocytic) macrophages was set for each experimental sample series. This level differed between the individual assays since the magnitude of basic (unstimulated) phagocytosis varied (different donors and time-points) among the experiments.

[2] = system: primary patient's MM cells; experiment: Macrophage ADCP; assay type: cell-based; details: human macrophages
Protocol: as §1, §2, §3, §4

ARH-77 tumors = experiment: SCID/ARH-77 subcutaneous xenograft model
Protocol: For subcutaneous grafting, 1-5×10^6 tumor cells (RPMI-8226, NCI-H929, EJM, OPM-2, ARH-77, or Daudi) were subcutaneously injected at a volume of 100 μl into the left flank of anesthetized mice as described in the Supplemental Information. […] Treatment with saline, isotype control IgG, bortezomib, lenalidomide, dexamethasone, or BI-505 started on day 5 (RPMI-8226). Treatment with melphalan started on day 10. BI-505 or isotype IgG mAb was administered i.v. at 2 mg/kg/inj twice weekly for 8 weeks; bortezomib at 1 mg/kg/inj once weekly for 8 weeks; lenalidomide orally at 2 mg/kg/inj for 2 cycles consisting of 5 days of treatment and 2 days of wash out; melphalan i.v. at 3 mg/kg/inj once weekly for 8 weeks; and dexamethasone at 6 mg/kg/inj three times weekly for 2 weeks.
Mice were anaesthetized with a mixture of sevofluran and oxygen prior to myeloma cell inoculation and 1-10×10^6 myeloma cells were then subcutaneously injected in a volume of 100 μl into the left flank. Treatment with antibodies by intraperitoneal injection started either 1 day after cell inoculation (prophylactic model) or when tumors reached approximately 100 mm^3 (established model). Antibodies were administered in 200 μL of PBS. Treatment with PBS only or isotype IgG were used as controls. Macrophages or NK-cells were depleted by i.p. administration of 0.1 ml clodronate liposomes (Clophosome-A, FormuMax, Scientific Inc. Palo Alto, USA) or 20 μl anti-asialo GM1 pCI Ab (CL8955, Cedarlane Laboratories Limited, Canada) respectively, starting one day prior to antibody treatment, followed by administration twice weekly for a total of three weeks, PBS was used as control.
Tumor size was measured using a digital calliper and tumor volumes were calculated according to the formula width^2×length×0.52, as previously described (Cao et al., 1999).
Statistical analyses of tumor growth inhibition relative to control antibody treatment were carried out using Kruskal-Wallis nonparametric ANOVA with Dunn's multiple comparisons test or Mann-Whitney non-parametric analysis, as indicated in the figure legends.

RPMI-8226 myeloma cells = experiment: NK-cell deficient NOD/Shi-scid/IL-2Rγ−/− mouse model; assay type: in vivo; details: RPMI-8226 grafted to NOD/Shi-scid/IL-2Rγ−/− mice
Protocol: (FIG. 20G) Tumor growth in BI-505 or control antibody treated NK-cell deficient NOD/Shi-scid/IL-2Rγ^−/− mice transplanted with RPMI-8226 myeloma cells. ***p<0.001.
Six-eight weeks-old female NOD/Shi-scid IL-2Rγ^−/− mice were obtained from Taconic, Denmark. Five million (5×10^6) RPMI-8226 or U266 tumor cells in 200 μL of RPMI 1640 were intravenously injected into the caudal vein (day 0). The tumor cell injection was performed 2 hr after whole body irradiation of mice (1.5 Gy, Cesium 137, IBL 637). At day 4, mice were randomized into 6 groups and treatment was initiated according to the schedule below.

[3] = tumors established for 12 days before start of antibody treatment

B1: B11: fully human IgG1 antibody specific for ICAM-1; VH and VL sequences of FIG. 10 (SEQ ID NOs. 6 and 8) (antibody, listed as Homo sapiens, V domains shown)
VH: EVQLLESGGGLVQPGGSLRLSCAASGFTFSNAWMSWVRQAPGKGLEWVAFIWYDGSNKYYADSVKGRFTISRDNSKNTLYLQMNSLRAEDTAVYYCARYSGWYFDYWGQGTLVTVSS
VL: QSVLTQPPSASGTPGQRVTISCTGSSSNIGAGYDVHWYQQLPGTAPKLLIYDNNNRPSGVPDRFSGSKSGTSASLAISGLRSEDEADYYCQSYDSSLSAWLFGGGTKLTVLG
[1]; Males, 10 mg/kg single IV
  Cmax: 281 µg/mL
[1]; in vivo
  anti-BI-505 antibodies: no anti-BI-505 antibodies were detected
  half-life: 12 to 13 days
  half-life corresponding in man: 2-3 weeks
[1]; in vivo, 0.5 mg/kg
  tmax: 15 min
[1]; in vivo, 10 mg/kg
  tmax: 30 min
Human FcγRIIIa
  binding to human FcγR: bound to human FcγR
RPMI-8226 cells
  ADCP: conferred ADCP
[2]
  ADCP: conferred ADCP
ARH-77 tumors; dose-titration, dose of 0.2 mg/kg
  antitumor activity: near maximal
ARH-77 tumors; established ARH-77 tumors
  in vivo antitumor activity of Fc-variants, order: IgG1 N297Q<IgG4<IgG1
ARH-77 tumors; established ARH-77 tumors, F4/80+ immunohistochemistry
  tumor macrophage infiltration: significantly increased tumor macrophage infiltration
ARH-77 tumors; established ARH-77 tumors, immunohistochemistry
  tumor NK cell content: decreased tumor NK cell content
ARH-77 tumors; prophylactic, 0.2 mg/kg, compared to 20 mg/kg rituximab
  survival: equally efficacious
ARH-77 tumors; prophylactic, 20 mg/kg twice-weekly from 1 day after tumor cell inoculation
  injected mice in which tumor growth was prevented: 9 out of 10
ARH-77 tumors; [3]
  animal survival: prolonged animal survival
  tumor growth: significantly reduced tumor growth
RPMI-8226 myeloma cells
  antitumor activity: significant antitumor activity
